Results from US20050182242A1, “Global analysis of protein activities using proteome chips” (priority 2001, published 2005).

Tests used:
Details in all cases: liposome binding signal on yeast proteome chip, Cy3-streptavidin detection
PI(3)P liposomes = test: Yeast proteome chip probed with PI(3)P liposomes
PI(3,4)P2 liposomes = test: Yeast proteome chip probed with PI(3,4)P2 liposomes
PI(3,4,5)P3 liposomes = test: Yeast proteome chip probed with PI(3,4,5)P3 liposomes
[1] = test system: phosphatidylcholine (PC) liposomes; test: Yeast proteome chip probed with PC liposomes
Method in brief: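 Binding detected by fluorescent streptavidin (Cy3 or Cy5, >30 min in the dark at RT) recognizing biotin-DHPE (1% w/w) in PC liposomes, which carried 5% (w/w) of the named phosphoinositide unless PC-only. Liposomes, made by sonication in TBS, were applied to blocked chips for 1 h at RT, then washed in PBS.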

PI(4,5)P2 liposomes = test: Yeast proteome chip probed with PI(4,5)P2 liposomes
PI(4)P liposomes = test: Yeast proteome chip probed with PI(4)P liposomes

Molecule	PI(3)P (PI(3)P liposomes)	PI(3, 4)P2 (PI(3,4)P2 liposomes)	PI(3, 4, 5)P3 (PI(3,4,5)P3 liposomes)	PC [1]	PI(4, 5)P2 (PI(4,5)P2 liposomes)	PI(4)P (PI(4)P liposomes)
VAC7: yeast GST-HisX6 fusion protein on proteome chip (protein, UniProt P53950 1-1165, looked up, GST-His6 tag, yeast GST-HisX6 fusion protein on proteome chip) Vacuolar segregation protein 7: MTEEDRKLTVETETVEAPVANNLLLSNNSNVVAPNPSIPSASTSTSPLHREIVDDSVATANTTSNVVQHNLPTIDNNLMDSDATSHNQDHWHSDINRAGTSMSTSDIPTDLHLEHIGSVSSTNNNSNNALINHNPLSSHLSNPSSSLRNKKSSLLVASNPAFASDVELSKKKPAVISNNMPTSNIALYQTARSANIHGPSSTSASKAFRKASAFSNNTAPSTSNNIGSNTPPAPLLPLPSLSQQNKPKIIERPTMHVTNSREILLGENLLDDTKAKNAPANSTTHDNGPVANDGLRIPNHSNADDNENNNKMKKNKNINSGKNERNDDTSKICTTSTKTAPSTAPLGSTDNTQALTASVSSSNADNHNNNKKKTSSNNNGNNSNSASNKTNADIKNSNADLSASTSNNNAINDDSHESNSEKPTKADFFAARLATAVGENEISDSEETFVYESAANSTKNLIFPDSSSQQQQQQQQPPKQQQQQQNHGITSKISAPLLNNNKKLLSRLKNSRHISTGAILNNTIATISTNPNLNSNVMQNNNNLMSGHNHLDELSSIKQEPPHQLQQQQPPMDVQSVDSYTSDNPDSNVIAKSPDKRSSLVSLSKVSPHLLSSTSSNGNTISCPNVATNSQELEPNNDISTKKSLSNSTLRHSSANRNSNYGDNKRPLRTTVSKIFDSNPNGAPLRRYSGVPDHVNLEDYIEQPHNYPTMQNSVKKDEFYNSRNNKFPHGLNFYGDNNVIEEENNGDSSNVNRPQHTNLQHEFIPEDNESDENDIHSMFYYNHKNDLETKPLISDYGEDEDVDDYDRPNATFNSYYGSASNTHELPLHGRMPSRSNNDYYDFMVGNNTGNNNQLNEYTPLRMKRGQRHLSRTNNSIMNGSIHMNGNDDVTHSNINNNDIVGYSPHNFYSRKSPFVKVKNFLYLAFVISSLLMTGFILGFLLATNKELQDVDVVVMDNVISSSDELIFDITVSAFNPGFFSISVSQVDLDIFAKSSYLKCDSNGDCTVMEQERKILQITTNLSLVEESANNDISGGNIETVLLGTAKKLETPLKFQGGAFNRNYDVSVSSVKLLSPGSREAKHENDDDDDDDGDDGDDENNTNERQYKSKPNARDDKEDDTKKWKLLIKHDYELIVRGSMKYEVPFFNTQKSTAIQKDSMVHPGKK	28.75	19.62	13.16	−1.17	21.99	28.74
MUB1: yeast GST-HisX6 fusion protein on proteome chip (protein, UniProt Q03162 1-620, looked up, GST-HisX6 tag, yeast GST-HisX6 fusion protein on proteome chip) MYND-type zinc finger protein …: MRDSNHRSLTSNKPIVTITSTVYDRRALDINSSIPLINSLNYLTYLTSNSSKVRETVANDGALERLVSILRSCHLSLFELLDLDLENFNEHENIKDLWKEKRLALCAWKWTLTFQCLVLTGTRGTEQIRKKVVMSGVLSVLVTVLDNYLLYHKNYDFIKDQTMTFDFKGITTETMYKFMRKDENETYQQYIEFITGQDKLKLSTDKNFLNERLVAPSMTIPTDFSDIWGRFADLASNFEPDQERHDDDIDIDSEVESENFDAHKNFFSQPDINRPTISTPREFFLGRIVPKQDDVIWSLQLLAFVSKYTYMKSTLQNVELVESLSFRSMAYKIKQRISEENDLEEQERDVTVKLSSLYPYLSKNPENNSKVKALDTSKMDPFFKELEELSNRCQQEEQNEICNNHCPVLNLFERYRVPKPSDDNAYGKDKERINLRKKISDNFERRWSYDKMKKELTNIVYKNKVLTNVVNIFPLVEKYTVSAENTHDVIYWSSVIMRNSCRKNEILGVRQCANFSCGKWEDFPRQFAKCRRCKRTKYCSRKCQLKAWGYHRYWCHEVGSSHMRSTNTTTGVNTPNEPSSLNATATTAADVSNSTSTFTPNISTTVPDEISNRDENSIPE	−6.00	9.89	9.79	2.64	−4.79	19.38
OPY1: yeast GST-HisX6 fusion protein on proteome chip (protein, UniProt P38271 1-328, looked up, GST-His6 fusion tag, yeast GST-HisX6 fusion protein on proteome chip) Pleckstrin homology domain …: MIAGATAPSSQHEILIASNLIKKPSTSQNKTPTAQSSSGNNGAADGAPQGYHHHHHHHRHLWWPRTTDHQYWCVLRKNQFAYYKTRDEREAISVIPRFDILNFKISELDGILTVYTPSKDLIFKFPRGQNEKVGMELMHNWKIALEKFLSSPSGNESVTTGSDYDEEEDDDDLIVVDEKAGPSSSKHSCSLTMDEQLSREDKEFYRMFDPRNAEHQVCSGILYTKVKKKKLFNRAKWQKFNVELTNTSFNLYSFKTGKLKKSIKLDKIIDCIELDNNSKMKNDDTNFALITFDERLSFKAANDQDMVDWIINFKSGILIRKKLKAENI	17.50	179.27	41.17	250.04	37.89	188.13
LYS1: yeast GST-HisX6 fusion protein on proteome chip (protein, UniProt P38998 2-373, looked up, GST-HisX6 tag, yeast GST-HisX6 fusion protein on proteome chip) Saccharopine dehydrogenase …: AAVTLHLRAETKPLEARAALTPTTVKKLIAKGFKIYVEDSPQSTFNINEYRQAGAIIVPAGSWKTAPRDRIIIGLKEMPETDTFPLVHEHIQFAHCYKDQAGWQNVLMRFIKGHGTLYDLEFLENDQGRRVAAFGFYAGFAGAALGVRDWAFKQTHSDDEDLPAVSPYPNEKALVKDVTKDYKEALATGARKPTVLIIGALGRCGSGAIDLLHKVGIPDANILKWDIKETSRGGPFDEIPQADIFINCIYLSKPIAPFTNMEKLNNPNRRLRTVVDVSADTTNPHNPIPIYTVATVFNKPTVLVPTTAGPKLSVISIDHLPSLLPREASEFFSHDLLPSLELLPQRKTAPVWVRAKKLFDRHCARVKRSSRL	3.50	81.94	61.20	255.33	22.21	198.15
BUD32: yeast GST-HisX6 fusion protein on proteome chip (protein, UniProt P53323 1-261, looked up, GST-His6 fusion tag, yeast GST-HisX6 fusion protein on proteome chip) EKC/KEOPS complex subunit …: MTQEFIDKVSSYLTPDVDIAPISQGAEAIVFTTTTHPYLPRAKDSHQKYIIKYRPPKRYRHPQIDQALTKHRTLNESRLLAKLYLIPGLCVPQLIACDPYNGFIWLEFLGEDLPGGHGFSNLKNFLWMHDQDPYSDLVATTLRKVGRQIGLLHWNDYCHGDLTSSNIVLVRDGARWTPHLIDFGLGSVSNLVEDKGVDLYVLERAILSTHSKHAEKYNAWIMEGFEEVYREQGAKGAKKLKEVTKRFEEVRLRGRKRSMLG	318.00	249.28	108.67	621.00	282.63	666.29
CAK1: yeast GST-HisX6 fusion protein on proteome chip (protein, UniProt P43568 1-368, looked up, GST-HisX6 tag, yeast GST-HisX6 fusion protein on proteome chip) Serine/threonine-protein …: MKLDSIDITHCQLVKSTRTARIYRSDTYAIKCLALDFDIPPHNAKFEVSILNKLGNKCKHILPLLESKATDNNDLLLLFPFEEMNLYEFMQMHYKRDRRKKNPYYDLLNPSIPIVADPPVQKYTNQLDVNRYSLSFFRQMVEGIAFLHENKIIHRDIKPQNIMLTNNTSTVSPKLYIIDFGISYDMANNSQTSAEPMDSKVTDISTGIYKAPEVLFGVKCYDGGVDVWSLLIIISQWFQRETSRMGHVPAMIDDGSDDMNSDGSDFRLICSIFEKLGIPSIQKWEEVAQHGSVDAFVGMFGADGDGKYVLDQEKDVQISIVERNMPRLDEIADVKVKQKFINCILGMVSFSPNERWSCQRILQELEKP	99.50	245.20	269.10	854.02	233.85	1431.44
APG1: yeast GST-HisX6 fusion protein on proteome chip (protein, UniProt P53104 1-897, looked up, GST-His6 tag, yeast GST-HisX6 fusion protein on proteome chip) Serine/threonine-protein …: MGDIKNKDHTTSVNHNLMASAGNYTAEKEIGKGSFATVYRGHLTSDKSQHVAIKEVSRAKLKNKKLLENLEIEIAILKKIKHPHIVGLIDCERTSTDFYLIMEYCALGDLTFLLKRRKELMENHPLLRTVFEKYPPPSENHNGLHRAFVLSYLQQLASALKFLRSKNLVHRDIKPQNLLLSTPLIGYHDSKSFHELGFVGIYNLPILKIADFGFARFLPNTSLAETLCGSPLYMAPEILNYQKYNAKADLWSVGTVVFEMCCGTPPFRASNHLELFKKIKRANDVITFPSYCNIEPELKELICSLLTFDPAQRIGFEEFFANKVVNEDLSSYELEDDLPELESKSKGIVESNMFVSEYLSKQPKSPNSNLAGHQSMADNPAELSDALKNSNILTAPAVKTDHTQAVDKKASNNKYHNSLVSDRSFEREYVVVEKKSVEVNSLADEVAQAGFNPNPIKHPTSTQNQNVLLNEQFSPNNQQYFQNQGENPRLLRATSSSSGGSDGSRRPSLVDRRLSISSLNPSNALSRALGIASTRLFGGANQQQQQQQITSSPPYSQTLLNSQLFHELTENIILRIDHLQHPETLKLDNTNIVSILESLAAKAFVVYSYAEVKFSQIVPLSTTLKGMANFENRRSMDSNAIAEEQDSDDAEEEDETLKKYKEDCLSTKTFGKGRTLSATSQLSATFNKLPRSEMILLCNEAIVLYMKALSILSKSMQVTSNWWYESQEKSCSLRVNVLVQWLREKFNECLEKADFLRLKINDLRFKHASEVAENQTLEEKGSSEEPVYLEKLLYDRALEISKMAAHMELKGENLYNCELAYATSLWMLETSLDDDDFTNAYGDYPFKTNIHLKSNDVEDKEKYHSVLDENDRIIIRKYIDSIANRLKILRQKMNHQN	72.00	138.45	92.70	464.28	319.65	668.47
SDS22: yeast GST-HisX6 fusion protein on proteome chip (protein, UniProt P36047 1-338, looked up, GST-HisX6 tag, yeast GST-HisX6 fusion protein on proteome chip) Protein phosphatase 1 …: MDKNSVNKDSEEKDERHKIEVVDDTNPDFITADSELTQDLPDDVEVIDLVHLKIKSLEDLNLYRFKNLKQLCLRQNLIESISEVEVLPHDKIVDLDFYDNKIKHISSNVNKLTKLTSLDLSFNKIKHIKNLENLTDLENLYFVQNSISKIENLSTLKSLKNLELGGNKVHSIEPDSFEGLSNLEEIWLGKNSIPRLINLHPLKNLKILSIQSNKLKKIENLEELTNLEELYLSHNFITKIEGLEKNLKLTTLDVTSNKITSLENLNHLSNLTDIWASFNKIDQSFESLGENLSALSRLETIYLEGNPIQLENKTSYRRKLTMNLPPSLQKIDATYIRG	2.00	4.71	−2.14	−4.70	14.15	13.28
